B1: TPR t1 (parent)
chain: GACCAAUCUGCCCUCAGAGCUCGAGAACAUCUUCGGAUGCAGAGGAGGCAGGCUUCGGUGGCGCGAUAGCGCCAACGUCCUCAACCUCCAAUGCAUCCCACCACAUGAUGAUGCCUGAAGAGCCUUGGUUUUUUG

Variants of: B1
Experiment: polymerase ribozyme fitness, log enrichment relative to wild type (log ratio); higher = more active; in vitro selection for triplet polymerase activity
Summary of the method: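 Libraries of mutants in each subunit of a heterodimeric triplet polymerase ribozyme were generated by PCR and transcribed. In triplicate, each went through one in vitro selection round: annealing with biotinylated primer, partner subunit and triplets; frozen incubation at −7 °C; gel excision of extended constructs; streptavidin-bead capture; RT-PCR. Fitness, taken from Illumina sequencing of input and output libraries, is the logarithm of a genotype's enrichment over wild-type enrichment, averaged across replicates with inverse-variance weights. The logarithm is base 2, and genotypes needed ≥10 input reads and ≥1 read per output to be kept.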

Compared with GACCAAUCUGCCCUCAGAGCUCGAGAACGUCUUCGGAUGCAGAGGACGCAGGAUUCGGAGGCGCGAUAGCGCCAACGUCCUCAACCUCCAAUGCAUCCCACCACAUGAUGAUGCCUGAAGAGCCUUGGUUUUUUG, GACCAAUCUGCCCUCAGAGCUCGCGAACAUCUUCGGAUGUAAAGGAGGCAGGCUUCGGUGGCGCGAUAGCGCAAACGUCCUCAACCUCCAAUGCUUCCCAUCACAUGAUGAUGCCUGAAAAGCCUUGGUCUUUUG is lower in “polymerase ribozyme fitness (log ratio)” value: -2.24 for the first, -7.09 for the second.

First: GACCAAUCUGCCCUCAGAGAUCGAGAACAUCUUCGGAUGCAGAGGAGGCAGGCUUCGGUGGCGUGAUAGCGCCAACGCCCUCAACCUCCAAUGCAACCCACGACAUGAUGAUGACUGAAGAGCCUUGGUUUUUUG
Second: GACCAAUCUGCCCUCAGAGCUCGAGAACAUCUUCGGAUGUAGAGGAGGCAGGCUUCGGUGGCGCGAUAGCGCCAACGUCCUCAACCUCCUAUGCAUCCCACCACAUGAUGAUGCCUGAAGAGCCUUGGUUUUUUG
The “polymerase ribozyme fitness (log ratio)” value of the first is lower: -6.83 for the first, -1.76 for the second.

First: GACCAAUCUGCCCUCAGAGCUCGAGAACAUCUUCGGAUGCAGAGGAGGCAGGCUUCGGUGGCGCGAUAGCGCCAACGUCUUCAACCUCCAAUGCAUCCCACCACAUGAUGAUGCCUGAACAGCCUUGGUUUUUUG
Second: GACCGAUCUGCCCUCAGAGCUCGAGAACAUCUUCGGAUGCAGAGGAGGCAGGCUUCGGUGGCGCGAUAGCGCCAACGUCCUCAAUCUCCAAUGCAUCCCACCACAUGAUGAUUCCUGAAGAUCCUUGGUUUUUUG
The “polymerase ribozyme fitness (log ratio)” value of the first is higher: 0.704 for the first, -3.92 for the second.

Compared with GACCAAUCUGCCCUCAGAGCUCGAGAUCAUCUUCGGAUGCAGAGGAGGCAGGCUUCGGUGGUGCGAUAGCGCCAACGUCCUCAACCUCCAAUGCAUCCCACCACAUGAUGAUGCCUUAAGAGGCUUGGUUUUUUG, GACCAAUCUGCCCUCAGAGCUCGAGAACAUCUUCGGAUGCAGAGGAGGCAGGCUUCGGUGGCGCGAUAGCGCCAACGUCCUCAACCUCCAAUGCAUCCCACCACAUGAUGAGGCCUGGAGAGCCUUGGUUUUUUG is higher in “polymerase ribozyme fitness (log ratio)” value: -5.03 for the first, 0.909 for the second.

Compared with GACCAAUCUGCCUUCAGAGCUCGAGAACAUCUUCGGAUGCAGAAGAGGCAGGCUUCGGUGGCGCGAUAGCGCCAACGUGCUCAACCUCCAAUUCAUCCCACCACAUGAUGAUGCCUGAAGAGCCUUGGUUUUUUG, GACCAAUCUGCCCUCAGAGCUCGAGAACAUCUUCGGACGCAGAGGAGGCAGGGUUCGGAGGCGCGAUAGCGCCAACGUCCUCAACCUCCAAUGCAUCCCACCACAAGAUGAUGCCUGAAGAGCCUUGGUUUUUUG is higher in “polymerase ribozyme fitness (log ratio)” value: -4.32 for the first, -0.127 for the second.

Compared with GACCAAUCUGACCUCAGAGCUCGAGAACAUCUUCGGAUGCAGAGGAGGGAGGCUUCGGUGGCCCGAUAGCGCCAACGUACUCAACCUCCAAUGCAUCCCACCACAUGAUGAUGCCUGAAGAGCCUUGGUUUUUUG, GACCAAUCUCCCCUCAGUGCUCGAGAACAUCUUCGGAUGCAGAGGAGGCAGGCUUCGGUGGCGCGAUAGCGCCAACGUCCUCAACCUCCAAUGCAUCCCACCACAUGAUGAUGCCUGAAGAGCCUUGGUUUUUUG is higher in “polymerase ribozyme fitness (log ratio)” value: -6.2 for the first, -3.34 for the second.

Going from GACCAAUCUGCCCUCAGAGCUCGAGAACAUCUUCAGAUGCAGAGGAGGCAGGCUUCGGUGCCGCGAUAGCGCCAACGUCCUCAACCUCCAAUGCAUCCCACCACAUGAUGAUGCCUGAAGAGCCUUGGUUUUUUG to GACCAAUCUGCCCUCAGAGCUCGAGAACAUCUUCGGAUGCAGAGGAGGCAGGCUUCGGUGGCGCGAUAGCGCCAACGUCCUCAACCUCCAAUGCAUCCCAUCACAUGAUGAUGCCCGAGGAGCCUUGGAUUUUUG, the “polymerase ribozyme fitness (log ratio)” value rises from -5.94 to 1.01.

Compared with GACCAAUCUGCCCUCAGAGCUCGAGAACACCUUCGGAUGCAGAGGAGGCAGGCUUCGGUGGCGCGAUAACGCCAACGUCCUCAACCUCCAAUGCAUCCCACCACAUGAUGAUGCCUGAAGAGCCUUGGUUUUUUG, GACCAAUCUGCCCUCAGAGCUCGAGAACAUCUUCGGAUGCAGAGGAGGCAGGCUUCGGUGGCGCGAUAGCGCCAACGUCCUCAACCUCCAAUGCAUCCCAACACAUGAUGAUGCUUGAAGAGCCUUGGUUUUUUG is higher in “polymerase ribozyme fitness (log ratio)” value: -4.88 for the first, -2.63 for the second.

Going from GACCAAUCUGCCCUCAGAGCUCGAGAACAUCUUCGGAUGCAGAGGAGGCAGGCUUCGGUGGCGCGAUAGUGCCAACGUCCUCAACCUCCACUGCAUCCCAUCACAUGAUGAAGCCUGAAGAGCCUUGGCUUUUUG to GACCAAUCUGCCCUCAGAGCUCGAGAACAUCUUCGGAUGCAGAGGAGGCAGGCUUCGGUGACGCGAUAGCGCCAACGUCCUCAACCUCCAAUGCAUCCCACCACAUGAUGAUGCCUGAAGAGGCUUGGUUUUUUG, the “polymerase ribozyme fitness (log ratio)” value rises from -6.24 to 1.69.

GACCAAUCUGCCCUCAGAGCUCGAGAACAUCUUCGGAUGCAGAGGAGGCAGGCUUCGGUGGCGCGAUAGCGCCAACGUCCUCAACCUCCAAUGCAUCCCACCACAUGAUGAUACUUGAAGAGCCUUGGUUUUUUG and GACCAAUCUGCCCUCAGAGCUCGAGAACAUCUUUGGAUGCAGAGGAGGCAGGCUUCGGUGGCACGAUAGCGCCAACGUCCUCAACCUCCAAUGCAUCCCACCACAUGAUGAUGCCUGAAGAGCCUUGGUUUUUUG are within 0.2 log units of each other in “polymerase ribozyme fitness (log ratio)” value: -3.6 for the first, -3.64 for the second.

Compared with GACCAAUCUGCCCUCAGAGCUCGAGAACAUCUUCGGAUGCAGAGGUGGCAGGCUUCGGUGGCGCGAUAUCGCCAACGUCCUCAACCUCCAUUGCAUCCCACCGCAAGAUGAUGUCUGAAGAGCCUUGGUUGUUUG, GACCAAUCUGCCCUCAGAGCUCGACAACAUCUUGGGAUGCAGAGGAGGCAGGCUUCGGUGGCGCGAUAGAGCCAACGUCCUCAACCUCCAAUGCAUCCCACCAGAUGAUUAUGCCGGAAGAGCCUUGGUUUUUUG is lower in “polymerase ribozyme fitness (log ratio)” value: -5.56 for the first, -8.24 for the second.

Going from GACCAAUCUGCCCUCAGAGCUCGAGAACAUCUUCGGAUGCAGAGGAGGCAGGCUUCGGUGGCGCGAUAGCGCCAACGUCCUCAACCUCCAAUGCAUCCCACCACAUGAUGAUGCCUAAAGAGCCUUGGUAUUUUG to GACCAAUCUGCCCUCAGAGCUCGAGAACAUCUUCGGAUGCAGAGGAGGCAGGCUUCGGUGGCGCGAUAGCGCCAACGUCCUCAACCUCUAAUGCAUCCCACCACAUGAUGAUGCCUAAAGAGCCUUGGAUUUUUG, the “polymerase ribozyme fitness (log ratio)” value falls from -2.15 to -3.55.

First: GACCAAUCUGCCCUCAGAGCUCGAGAACAUCUUCGGAUGCAGAGGAGGCAGGCUUCGGUGGCGCGAUAGCGCCAACGUCCUCAACCUCCAGUGCAUCCCAUCACAUGAUAAUGCCUGAAGAGCCUUGGUUUUUUG
Second: GACCAAUCUGCCCUCAGAGCUCGAGAACAUCUUCGGAUGCAGUGGAGGCAGGCUUCGGUGCCGCGAUAGCGCCAACGUCCUCAACCUCCAAUGCAUCCCACCACAUGAUGAUGCCUGAAGAGCCUUGGUUUUUUG
The “polymerase ribozyme fitness (log ratio)” value of the first is higher: -2.85 for the first, -4.42 for the second.

Going from GACCAAUCUGCCCUCAGAGCUCGAGAACAUCUUCGGAUGCGGAGGUGGCAGGCUUCGGUGGCGCGAUAGCGCCAACGUCCUCAACCUCCAAUGCAUCCCACCACAUGAUGAUGCCUGAAGAGCCUUGGUUUUUUG to GACCAAUCUGCCCUCAGAGCUCGAGAACAUCUUCGGAUGCAGAGGAGGCAGGCUUCGGUGGAGCGAUAGCGCCAACGUCCUCAACCUCCAAUGCAUCCCACCACAUGAUGAUGCCUGAAGAGCCUUGGUUUUUUG, the “polymerase ribozyme fitness (log ratio)” value rises from -3.31 to -0.872.

Compared with GACCAAUCUGCCCUCAGAGCUCGAGAACAUCUUCGGAUGCAGAGGAGGCAGGCUUCGGUGGCGCGAUAGCGCCAACCUCCUCAACAUCCAAUGCAUCCCACCACAUGAUGAUGCCUAAAGAGCCUUGGUUUUUUG, GACCAAUCUGCCCUCAGAGCUCGAGAACAUCUUCGGAUGCAGAGGAGGCAGGCUUCGGUGGCGUGAUAGCGCCAACGUCCUCAACCUCCAAUGCAUCCCACCACAUGAUGAUGCCUGAAGAGCCUUGGUUUUUUU is higher in “polymerase ribozyme fitness (log ratio)” value: -3.88 for the first, -0.52 for the second.

First: GACCUAUCUGCCCUCAGAGCUCGAGAACAUCUUCGGAUGCAGAGGAGGCAGGCUUCGGUGGCGCGAUAGCGCUAACGUCCUCAACCUCCAAUGCAUCCCACCACAUGAUGAUGCCUGAAGAACCUUGGAUUUUUG
Second: GACCAAUCUGCCCUCAGAGCUCAAGAACAUCUUCGGAUGCAGAGGAGGCAGGCUUCGGUGGCGCGAUAGCGCCAACAUCCUCAACCUCCAAUGCAUCCCACCACAUGAUGAUGCCUGAAGAGCCUUGGUUUUUUG
The “polymerase ribozyme fitness (log ratio)” value of the first is higher: -2.07 for the first, -6.34 for the second.

Going from GACCAAUCUGCCCUCAGAGCUCGAGAACAUCUUCGGAUGCAGAGGAGGCAGGCUUCGGUGGCGCGAUAGCGCCAACGACCUCAACCUCCAAUGCAUCCCACCACAUGAUGAUGCCUGAAGAGACUUGGUUUUUUG to GACCAAUCUGCACUCAGAUCUCGAGAACAUCUUCGGAUGCAUAGGAGGCAGGCUUCGGUGGCGCGAUAGCGCCAACGUCCUCAACCUCCAAAGCAUCCCACCACAUGAUGACGCCUGAAGAGCCUUGGGUUUUUG, the “polymerase ribozyme fitness (log ratio)” value falls from 0.278 to -3.59.

Going from GACCAAUCUGCCCUCAGAGCUCGAGAACAUCUUCGGAUGCCGAGGAGGCAGGCUUCGGUGGCGCGAUAGCGCCAACGUCCUCAACCUCCAAUGCAUCCCACCACCUGAUGAUGCCUGAAGAGCCUUGGUUUUUUG to GACCAAUCUGCUCUCAGAGCUCGAGAACAUCUUCGGAUGCAGAGGAGGCAGGCUUCGGUGGCGCGAUAGCGCCAACGUCCUCAACCUCCAAUGCAUCCCACCACAUGAUGGUGCCUGAAGAGCCUUGGUUUUUUG, the “polymerase ribozyme fitness (log ratio)” value rises from -5.23 to 0.95.

Compared with GACCAAUCUGCCCUCAGAGCUCGGGAACAUCUUCGGAUGCAGAGGAAGCAGGCUUCGGUGGCGCGAUAGCGCCAACGUCCUCAACCUCCAAUGCAUCCCACCACAUGAUGAUGCCUGAAGAGCCUUGGUUUUUUG, GACCAAUCUGCCCUCAGAGCUCGAGAACAUCUUCGGAUGCAGAGGAGGCAGGCUUCGGUGGCGCGAUAGCGCCCACGUACUCAACCUCCAAUGCAUCCCACCACAUGAUGAUGCCUGAAGAGCCUUGGUUGUUUG is higher in “polymerase ribozyme fitness (log ratio)” value: -2.63 for the first, -0.848 for the second.

Going from GACCAAUCUGCCCUCAGAGCUCGAGAACAUCUUCGGAUGCAGAGGAGGCAGGCUUAGGUGGCGGGAUAGCGCCAACGUCCUCAACCUCCAAUGCAUCCCACCACAUGAUGAUGCCUGAAGAGCCUUGGUUUUUUG to GACCAAUCUGCCCUCAGAGCUCGAGAACAUCUUCGUAUGCAGAGGAGGCAGGCUUCGGUUGCGCGAUAGCGCCAACGUCCUCAACCUCCAAUGCAUCCCACCACAUGAUGUUGCCUGAAGAGCCUUGGUUUUUUG, the “polymerase ribozyme fitness (log ratio)” value rises from -5.92 to -2.87.

Compared with GACCAAUCUGCCCUCAGAGCUCGAGAACAUCUUCGGAUGCAGAGGAGGCAGGCUUCGGUGGCGCGAUAGCGCCAACGUCCUCAACCUCUAAUGCAUCCCACCAAAUGAUGAUGCCUGAAGAGCCUUGGUUUUUUG, GACCAAUCUGCCCUCAGAGCUCGAGAACAUCUUCGGAUGCAGAGGAGGCAGCCUUCGGUGGUGCGAUAGCGACAACGUCCUUAACCUCCAAUGCAUCCCACCACAUGAUGAUGCCUGAUGAGCCUUGGUUUUUUG is higher in “polymerase ribozyme fitness (log ratio)” value: -1.84 for the first, -1.34 for the second.

— the RNAGym collection of RNA variant scans (doi:10.1073/pnas.2313332121)
